Assays:
[1] = biological target: endogenous ROCK1 of neonatal rat cardiomyocytes (UniProt Q63644)
TAT-SRF = TAT-SRF (UniProt P11831)
[2] = biological target: T1, serum response factor (SRF) (UniProt P11831)
T1 sequence: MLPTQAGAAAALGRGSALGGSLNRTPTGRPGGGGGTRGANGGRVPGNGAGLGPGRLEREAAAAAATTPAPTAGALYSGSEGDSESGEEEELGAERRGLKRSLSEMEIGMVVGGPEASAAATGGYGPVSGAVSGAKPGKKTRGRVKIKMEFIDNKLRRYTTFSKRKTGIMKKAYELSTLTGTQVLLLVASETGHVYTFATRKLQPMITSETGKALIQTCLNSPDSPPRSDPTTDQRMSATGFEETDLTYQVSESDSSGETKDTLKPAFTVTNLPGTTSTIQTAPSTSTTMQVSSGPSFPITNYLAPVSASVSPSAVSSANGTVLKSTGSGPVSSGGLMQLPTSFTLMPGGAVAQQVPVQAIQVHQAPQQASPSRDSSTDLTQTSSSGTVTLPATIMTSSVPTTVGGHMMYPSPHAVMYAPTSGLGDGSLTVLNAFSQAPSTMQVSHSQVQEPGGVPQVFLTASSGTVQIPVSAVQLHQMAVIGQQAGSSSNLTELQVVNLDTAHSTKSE

TAT-SRF245A/254A = TAT-SRF245A/254A (UniProt P11831)

Sequence of endogenous ROCK1 of neonatal rat cardiomyocytes (Q63644 2-1369): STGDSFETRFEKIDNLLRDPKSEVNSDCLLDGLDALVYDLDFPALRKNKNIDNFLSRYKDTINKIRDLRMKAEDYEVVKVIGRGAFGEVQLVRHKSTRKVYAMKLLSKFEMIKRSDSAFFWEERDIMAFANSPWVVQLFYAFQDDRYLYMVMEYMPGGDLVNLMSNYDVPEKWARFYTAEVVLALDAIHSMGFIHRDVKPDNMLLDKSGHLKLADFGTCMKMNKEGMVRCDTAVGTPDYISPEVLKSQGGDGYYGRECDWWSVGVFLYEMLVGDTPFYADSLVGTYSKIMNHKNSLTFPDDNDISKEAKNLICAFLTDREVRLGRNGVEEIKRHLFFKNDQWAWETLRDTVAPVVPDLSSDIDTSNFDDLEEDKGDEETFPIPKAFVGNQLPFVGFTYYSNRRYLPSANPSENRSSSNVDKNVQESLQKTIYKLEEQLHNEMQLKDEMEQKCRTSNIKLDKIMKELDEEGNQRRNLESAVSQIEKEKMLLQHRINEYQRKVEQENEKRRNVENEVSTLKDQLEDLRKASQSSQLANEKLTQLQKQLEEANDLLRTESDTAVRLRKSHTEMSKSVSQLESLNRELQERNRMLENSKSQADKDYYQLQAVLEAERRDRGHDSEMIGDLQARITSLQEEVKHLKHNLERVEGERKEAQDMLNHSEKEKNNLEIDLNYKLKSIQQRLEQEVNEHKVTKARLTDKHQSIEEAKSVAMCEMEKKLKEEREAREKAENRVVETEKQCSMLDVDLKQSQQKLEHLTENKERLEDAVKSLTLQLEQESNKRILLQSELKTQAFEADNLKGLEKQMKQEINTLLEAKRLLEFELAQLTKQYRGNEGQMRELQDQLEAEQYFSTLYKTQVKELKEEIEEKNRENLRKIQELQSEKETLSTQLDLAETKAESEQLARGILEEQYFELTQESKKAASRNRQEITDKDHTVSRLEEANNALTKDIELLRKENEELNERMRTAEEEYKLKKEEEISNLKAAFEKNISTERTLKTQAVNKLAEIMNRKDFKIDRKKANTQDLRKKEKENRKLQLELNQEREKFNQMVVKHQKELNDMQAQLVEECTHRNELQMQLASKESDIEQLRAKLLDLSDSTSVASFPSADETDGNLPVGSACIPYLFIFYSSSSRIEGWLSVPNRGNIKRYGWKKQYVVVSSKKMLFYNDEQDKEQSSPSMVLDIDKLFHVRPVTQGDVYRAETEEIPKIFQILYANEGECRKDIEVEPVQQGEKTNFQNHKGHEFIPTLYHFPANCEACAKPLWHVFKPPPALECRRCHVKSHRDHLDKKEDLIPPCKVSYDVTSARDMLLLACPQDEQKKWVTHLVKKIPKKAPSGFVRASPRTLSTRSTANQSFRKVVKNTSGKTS

| Substance | 130 kDa ROCK1 cleavage fragment by Western blot of infected cardiomyocytes [1] | in vitro cleavage by recombinant caspase 3 (TAT-SRF) | in vitro cleavage of SRF [2] | in vitro cleavage by recombinant caspase 3 (TAT-SRF245A/254A) |
| --- | --- | --- | --- | --- |
| conditional caspase 3 (iCasp3) | The 130 kDa cleavage fragment of ROCK1 was detected in cardiomyocytes infected with Ad-G/iCasp3 and treated with CID | – | – | – |
| active caspase 3 (recombinant caspase 3) | – | only TAT-SRF was cleaved by caspase 3 | Activated caspase 3 is able to cleave SRF in vitro | SRF245A/254A mutant was resistant to caspase 3 cleavage |

Reference: patent US20060142193
